Measured values from patent US20240318156A1.

Legend:
[1] = biological target: cation independent mannose 6-phosphate receptor (CI-MPR) (human) (UniProt P11717); assay: cell-based or functional assay
[2] = biological target: T1, Recombinant human GM2 activator protein (GM2AP) containing an N-terminal 6×-histidine tag, P17900
T1 chain: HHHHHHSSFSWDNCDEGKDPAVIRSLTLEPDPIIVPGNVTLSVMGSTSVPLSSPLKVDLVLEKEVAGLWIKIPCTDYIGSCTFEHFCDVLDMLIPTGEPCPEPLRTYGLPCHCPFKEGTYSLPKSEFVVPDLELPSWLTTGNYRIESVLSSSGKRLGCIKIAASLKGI

Sequence of UniProt P11717 (P11717 41-2491): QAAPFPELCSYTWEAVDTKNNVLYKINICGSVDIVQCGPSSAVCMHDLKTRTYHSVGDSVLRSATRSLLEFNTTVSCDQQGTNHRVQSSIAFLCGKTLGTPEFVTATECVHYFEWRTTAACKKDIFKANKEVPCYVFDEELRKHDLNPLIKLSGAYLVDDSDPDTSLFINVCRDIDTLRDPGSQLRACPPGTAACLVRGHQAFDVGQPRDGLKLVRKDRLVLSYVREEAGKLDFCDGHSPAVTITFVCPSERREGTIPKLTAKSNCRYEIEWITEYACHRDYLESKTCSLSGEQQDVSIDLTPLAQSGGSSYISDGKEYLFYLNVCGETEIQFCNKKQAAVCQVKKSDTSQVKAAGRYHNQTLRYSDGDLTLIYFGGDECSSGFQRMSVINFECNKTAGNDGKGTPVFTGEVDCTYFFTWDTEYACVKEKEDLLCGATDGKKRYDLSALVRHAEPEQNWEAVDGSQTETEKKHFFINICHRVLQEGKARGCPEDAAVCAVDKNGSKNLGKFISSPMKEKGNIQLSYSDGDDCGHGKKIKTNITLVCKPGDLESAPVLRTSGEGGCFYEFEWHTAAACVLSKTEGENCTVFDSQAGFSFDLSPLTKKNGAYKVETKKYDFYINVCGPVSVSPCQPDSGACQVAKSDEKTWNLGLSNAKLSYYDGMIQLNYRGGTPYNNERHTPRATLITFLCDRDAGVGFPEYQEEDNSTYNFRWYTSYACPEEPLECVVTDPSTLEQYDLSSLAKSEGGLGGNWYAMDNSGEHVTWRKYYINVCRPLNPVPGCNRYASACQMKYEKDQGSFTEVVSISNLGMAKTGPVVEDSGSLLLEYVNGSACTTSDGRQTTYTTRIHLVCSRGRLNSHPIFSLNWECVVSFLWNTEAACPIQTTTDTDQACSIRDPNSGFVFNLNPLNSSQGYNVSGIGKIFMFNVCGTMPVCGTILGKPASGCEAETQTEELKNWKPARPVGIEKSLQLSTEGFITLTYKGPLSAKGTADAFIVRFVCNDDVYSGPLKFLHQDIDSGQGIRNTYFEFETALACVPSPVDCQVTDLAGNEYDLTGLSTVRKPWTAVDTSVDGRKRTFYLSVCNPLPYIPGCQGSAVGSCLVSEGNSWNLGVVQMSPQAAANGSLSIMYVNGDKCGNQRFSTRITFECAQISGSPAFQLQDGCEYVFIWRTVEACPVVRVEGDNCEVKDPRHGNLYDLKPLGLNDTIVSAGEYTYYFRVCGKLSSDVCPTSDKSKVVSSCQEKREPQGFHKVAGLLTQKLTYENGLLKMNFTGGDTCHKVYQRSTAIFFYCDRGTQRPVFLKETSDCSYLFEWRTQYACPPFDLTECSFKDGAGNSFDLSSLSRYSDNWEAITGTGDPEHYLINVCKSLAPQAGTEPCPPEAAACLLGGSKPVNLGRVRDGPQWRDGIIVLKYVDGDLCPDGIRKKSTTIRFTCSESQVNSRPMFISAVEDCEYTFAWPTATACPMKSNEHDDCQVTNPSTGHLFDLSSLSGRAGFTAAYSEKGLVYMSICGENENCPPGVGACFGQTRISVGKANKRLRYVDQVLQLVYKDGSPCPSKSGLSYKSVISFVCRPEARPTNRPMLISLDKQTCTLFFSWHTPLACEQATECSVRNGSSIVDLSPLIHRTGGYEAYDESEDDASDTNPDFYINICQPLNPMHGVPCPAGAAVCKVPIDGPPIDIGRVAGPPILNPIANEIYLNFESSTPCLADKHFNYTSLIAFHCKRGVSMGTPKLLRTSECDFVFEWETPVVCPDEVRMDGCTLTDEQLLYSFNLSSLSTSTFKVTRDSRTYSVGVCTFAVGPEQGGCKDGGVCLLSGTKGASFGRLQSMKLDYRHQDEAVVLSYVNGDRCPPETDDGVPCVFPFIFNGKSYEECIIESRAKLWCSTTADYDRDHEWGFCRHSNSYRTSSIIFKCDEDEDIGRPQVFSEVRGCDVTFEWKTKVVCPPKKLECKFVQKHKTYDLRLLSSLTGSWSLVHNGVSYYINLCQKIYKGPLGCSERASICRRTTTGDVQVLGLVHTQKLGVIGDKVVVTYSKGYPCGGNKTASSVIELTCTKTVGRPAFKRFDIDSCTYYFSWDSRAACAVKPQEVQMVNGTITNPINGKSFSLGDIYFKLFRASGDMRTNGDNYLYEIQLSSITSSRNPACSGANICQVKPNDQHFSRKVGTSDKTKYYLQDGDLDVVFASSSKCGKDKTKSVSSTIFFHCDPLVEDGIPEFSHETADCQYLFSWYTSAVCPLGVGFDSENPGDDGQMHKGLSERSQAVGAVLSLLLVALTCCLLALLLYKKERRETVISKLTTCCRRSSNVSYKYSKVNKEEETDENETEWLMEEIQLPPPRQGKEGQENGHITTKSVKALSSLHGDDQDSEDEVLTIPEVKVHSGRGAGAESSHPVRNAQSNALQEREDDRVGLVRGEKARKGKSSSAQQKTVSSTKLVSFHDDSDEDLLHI

B1: HexM (Modified α/α homodimer) (protein)
chain: TLEKNVLVVSVVTPGCNQLPTLESVENYTLTINDDQCLLLSETVWGALRGLETFSQLVWKSAEGTFFINKTEIEDFPRFPHRGLLLDTSRHYLPLKSILDTLDVMAYNKLNVFHWHLVDDQSFPYESFTFPELMRKGSYSLSHIYTAQDVKEVIEYARLRGIRVLAEFDTPGHTLSWGPGIPGLLTPCYSGSEPSGTFGPVNPSLNNTYEFMSTFFLEVSSVFPDFYLHLGGDEVDFTCWKSNPEIQDFMRKKGFGEDFKQLESFYIQTLLDIVSSYGKGYVVWQEVFDNKVKIQPDTIIQVWREDIPVNYMKELELVTKAGFRALLSAPWYLNRISYGQDWRKFYKVEPLAFEGTPEQKALVIGGEACMWGEYVDATNLVPRLWPRAGAVAERLWSNKLTRDMDDAYDRLSHFRCELVRRGVAAQPLYAGYCNQEFEQT
B1 was tested, and the K uptake (nM) MUG activity [1] was 130 nM, the “GM2AP-dependent kinetics of GM2 hydrolysis” value [2] was “GM2AP binding kinetics to the Hex homodimers was comparable to the wild type heterodimer” and the Km (Kinetic data of FIG. 2, GM2AP-dependent GM2 degradation) [2] was 19.6 µM. The Km GM2AP [2] was 19.6 µM and the Km [GM2AP], µM (GM2AP-dependent GM2 hydrolysis, natural substrate assay) [2] was 19.6 µM.

B2: HexD3 (Modified α/α homodimer) (protein)
chain: ARAPSVSAKPGPALWPLPLSVKMTPNLLHLAPENFYISHSPNSTAGPSCTLLEEAFRRYHGYIFGFYKWHHEPAEFQAKTQVQQLLVSITLQSECDAFPNISSDESYTLLVKEPVAVLKANRVWGALRGLETFSQLVYQDSYGTFTINESTIIDSPRFPHRGLLLDTSRHYLPLKSILDTLDVMAYNKLNVFHWHLVDDQSFPYESFTFPELMRKGSYSLSHIYTAQDVKEVIEYARLRGIRVLAEFDTPGHTLSWGPGIPGLLTPCYSGSEPSGTFGPVNPSLNNTYEFMSTFFLEVSSVFPDFYLHLGGDEVDFTCWKSNPEIQDFMRKKGFGEDFKQLESFYIQTLLDIVSSYGKGYVVWQEVFDNKVKIQPDTIIQVWREDIPVNYMKELELVTKAGFRALLSAPWYLNRISYGQDWRKFYKVEPLAFEGTPEQKALVIGGEACMWGEYVDATNLVPRLWPRAGAVAERLWSNKLTRDMDDAYDRLSHFRCELVRRGVAAQPLYAGYCNQEFEQT
Work on B2 yielded a K uptake (nM) MUG activity [1] of 5.8 nM, a Km (Kinetic data of FIG. 2, GM2AP-dependent GM2 degradation) [2] of 13.7 µM and a Km GM2AP [2] of 13.7 µM. It also gave a Km [GM2AP], µM (GM2AP-dependent GM2 hydrolysis, natural substrate assay) [2] of 13.7 µM.

B3: Mod2B (Modified β/β homodimer) (protein)
chain: TQVQQLLVSITLQSECDAFPNISSDESYTLLVKEPVAVLKANRVWGALRGLETFSQLVYQDSYGTFTINESTIIDSPRFSHRGILIDTSRHYLPVKIILKTLDAMAFNKFNVLHWHIVDDQSFPYQSITFPELSNKGSYSLSHVYTPNDVRMVIEYARLRGIRVLPEFDTPGHTLSWGKGQKDLLTPCYSGSEPSGTFGPINPTLNTTYSFLTTFFKEISEVFPDQFIHLGGDEVEFKCWESNPKIQDFMRQKGFGTDFKKLESFYIQKVLDIIATINKGSIVWQEVFDDKAKLAPGTIVEVWKDSAYPEELSRVTASGFPVILSAPWYLNRISYGQDWRKYYKVEPLDFGGTQKQKQLFIGGEACLWGEYVDATNLTPRLWPRASAVGERLWSSKDVRDMDDAYDRLTRHRCRMVERGIAAQPLYAGYCNHENM
With B3 the “GM2AP-dependent kinetics of GM2 hydrolysis” value [2] was “GM2AP binding kinetics to the Hex homodimers was comparable to the wild type heterodimer”, the Km (Kinetic data of FIG. 2, GM2AP-dependent GM2 degradation) [2] was 20.4 µM and the Km [GM2AP], µM (GM2AP-dependent GM2 hydrolysis, natural substrate assay) [2] was 20.4 µM.

B4: HexA (wild-type; α/β heterodimer) (protein)
chain 1: TLEKNVLVVSVVTPGCNQLPTLESVENYTLTINDDQCLLLSETVWGALRGLETFSQLVWKSAEGTFFINKTEIEDFPRFPHRGLLLDTSRHYLPLSSILDTLDVMAYNKLNVFHWHLVDDPSFPYESFTFPELMRKGSYNPVTHIYTAQDVKEVIEYARLRGIRVLAEFDTPGHTLSWGPGIPGLLTPCYSGSEPSGTFGPVNPSLNNTYEFMSTFFLEVSSVFPDFYLHLGGDEVDFTCWKSNPEIQDFMRKKGFGEDFKQLESFYIQTLLDIVSSYGKGYVVWQEVFDNKVKIQPDTIIQVWREDIPVNYMKELELVTKAGFRALLSAPWYLNRISYGPDWKDFYIVEPLAFEGTPEQKALVIGGEACMWGEYVDNTNLVPRLWPRAGAVAERLWSNKLTSDLTFAYERLSHFRCELLRRGVQAQPLNVGFCEQEFEQT
chain 2: ARAPSVSAKPGPALWPLPLSVKMTPNLLHLAPENFYISHSPNSTAGPSCTLLEEAFRYHGYIFGFYKWHHEPAEFQAKTQVQQLLVSITLQSECDAFPNISSDESYTLLVKEPVAVLKANRVWGALRGLETFSQLVYQDSYGTFTINESTIIDSPRFSHRGILIDTSRHYLPVKIILKTLDAMAFNKFNVLHWHIVDDQSFPYQSITFPELSNKGSYSLSHVYTPNDVRMVIEYARLRGIRVLPEFDTPGHTLSWGKGQKDLLTPCYSRQNKLDSFGPINPTLNTTYSFLTTFFKEISEVFPDQFIHLGGDEVEFKCWESNPKIQDFMRQKGFGTDFKKLESFYIQKVLDIIATINKGSIVWQEVFDDKAKLAPGTIVEVWKDSAYPEELSRVTASGFPVILSAPWYLDLISYGQDWRKYYKVEPLDFGGTQKQKQLFIGGEACLWGEYVDATNLTPRLWPRASAVGERLWSSKDVRDMDDAYDRLTRHRCRMVERGIAAQPLYAGYCNHENM
B4 was tested, and the K uptake (nM) MUG activity [1] was 3.3 nM, the Km (Kinetic data of FIG. 2, GM2AP-dependent GM2 degradation) [2] was 14.5 µM and the Km GM2AP [2] was 14.5 µM. The Km [GM2AP], µM (GM2AP-dependent GM2 hydrolysis, natural substrate assay) [2] was 14.5 µM.
